Test results published in US20140134177A1 (ONCOMED PHARMACEUTICALS, published 2014).

B1: FZD10-Fc (Fc fusion, UniProt Q9ULW2 21-154, looked up)
chain: ISSMDMERPGDGKCQPIEIPMCKDIGYNMTRMPNLMGHENQREAAIQLHEFAPLVEYGCHGHLRFFLCSLYAPMCTEQVSTPIPACRVMCEQARLKCSPIMEQFNFKWPDSLDCRKLPNKNDPNYLCMEAPNNG
notes: also called soluble FZD10; FZD1-10-Fc; not shown: Fc
B2: FZD4-Fc (Fc fusion, UniProt Q9ULV1 40-170, looked up)
chain: EEERRCDPIRISMCQNLGYNVTKMPNLVGHELQTDAELQLTTFTPLIQYGCSSQLQFFLCSVYVPMCTEKINIPIGPCGGMCLSVKRRCEPVLKEFGFAWPESLNCSKFPPQNDHNHMCMEGPGDEEVPLP
notes: also called FZD1-10-Fc; FZD-Fc constructs; not shown: Fc
B3: FZD8-Fc (Fc fusion, UniProt Q9H461 28-158, looked up)
chain: ASAKELACQEITVPLCKGIGYNYTYMPNQFNHDTQDEAGLEVHQFWPLVEIQCSPDLKFFLCSMYTPICLEDYKKPLPPCRSVCERAKAGCAPLMRQYGFAWPDRMRCDRLPEQGNPDTLCMDYNRTDLTT
notes: also called soluble FZD8; FZD1-10-Fc; not shown: Fc
B4: FZD5-Fc (Fc fusion, UniProt Q13467 27-157, looked up)
chain: ASKAPVCQEITVPMCRGIGYNLTHMPNQFNHDTQDEAGLEVHQFWPLVEIQCSPDLRFFLCSMYTPICLPDYHKPLPPCRSVCERAKAGCSPLMRQYGFAWPERMSCDRLPVLGRDAEVLCMDYNRSEATT
notes: as for B2
B5: FZD9-Fc (Fc fusion, UniProt O00144 23-159, looked up)
chain: LEIGRFDPERGRGAAPCQAVEIPMCRGIGYNLTRMPNLLGHTSQGEAAAELAEFAPLVQYGCHSHLRFFLCSLYAPMCTDQVSTPIPACRPMCEQARLRCAPIMEQFNFGWPDSLDCARLPTRNDPHALCMEAPENA
notes: as for B2
B6: FZD3-Fc (Fc fusion, UniProt Q9NPG1 23-143, looked up)
chain: HSLFSCEPITLRMCQDLPYNTTFMPNLLNHYDQQTAALAMEPFHPMVNLDCSRDFRPFLCALYAPICMEYGRVTLPCRRLCQRAYSECSKLMEMFGVPWPEDMECSRFPDCDEPYPRLVDL
notes: as for B2
B7: RSPO1-CD4TM (ligand)
chain: SRGIKGKRQRRISAEGSQACAKGCELCSEVNGCLKCSPKLFILLERNDIRQVGVCLPSCPPGYFDARNPDMNKCIKCKIEHCEACFSHNFCTKCKEGLYLHKGRCYPACPEGSSAANGTMECSSPAQCEMSEWSPWGPCSKKQQLCGFRRGSEERTRRVLHAPVGDHAACSDTKETRRCTVRRVPCPEGQKRRKGGQGRRENANRNLARKESKEAGAGSRRRKGQQQQQQQGTVGPLTSAGPAMALIVLGGVAGLLLFIGLGIFF
notes: domain: transmembrane domain; also called cell-surface RSPO1; RSPO1 transfected cells
B8: FZD6-Fc (Fc fusion, UniProt O60353 19-146, looked up)
chain: HSLFTCEPITVPRCMKMAYNMTFFPNLMGHYDQSIAAVEMEHFLPLANLECSPNIETFLCKAFVPTCIEQIHVVPPCRKLCEKVYSDCKKLIDTFGIRWPEELECDRLQYCDETVPVTFDPHTEFLGP
notes: as for B2

Tests used:
[1] = biological target: B7; assay: FACS, Fc fusion on HEK 293 cells with RSPO1-CD4TM
Procedure: (§1) FIG. 7. RSPO1 Activates Beta-Catenin Signaling via Binding to LGR5. A) HEK 293 cells transiently transfected with RSPO1-CD4TM and GFP were incubated with LGR5-Fc, LRP6FL-Fc, LRP6E1-2-Fc, or FZD1-10-Fc as indicated. […] B) HEK 293 cells transiently transfected with […] and GFP were incubated in the presence of heparin with (in duplicate) RSPO1-Fc (top), FZD8-Fc (middle), or a FLAG antibody as a positive control (bottom). […] HEK 293 cells transiently transfected with FLAG-LGR5-CD4TM and GFP were incubated in the presence of heparin with RSPO1-Fc, RSPO2-Fc, RSPO3-Fc, RSPO4-Fc, FZD8-Fc, or a FLAG antibody as a positive control as indicated.
(§2) To determine the mechanism by which RSPO1 activates beta-catenin signaling, FACS analysis was used to assess binding between RSPO1 and LGR5. In certain embodiments, binding between soluble LGR5 and cell-surface RSPO1 was determined. A cell-surface RSPO1 protein was generated by ligating full-length human RSPO1 to the transmembrane domain of CD4 using standard recombinant DNA techniques (RSPO1-CD4TM). HEK 293 cells were transiently transfected RSPO1-CD4TM and GFP. After 48 hours, cells were suspended in ice cold PBS containing 2% FCS and then incubated on ice in the presence of LGR5-Fc, LRP6-ECD-Fc (containing the extracellular domain of human LRP6 fused to an Fc domain), LRP6E1-2-Fc (containing amino acids 1-629 of human LRP6 fused to an Fc domain), or various FZD-Fc constructs, including FZD1-10. […] Only a weak interaction between RSPO1 and the WNT co-receptor LRP6 was detected.

[2] = biological target: T1, FLAG-LGR5-CD4TM (human, UniProt P01730 397-418, limits assumed); assay: FACS, Fc fusion on HEK 293 cells with FLAG-LGR5-CD4TM, with heparin
T1 construct: domain: transmembrane domain; also called cell-surface LGR5; LGR5 transfected cells; not shown: N-terminal FLAG tag
Procedure: In certain embodiments, binding between soluble RSPO1 and cell-surface LGR5 was determined. A variant cell-surface LGR5 protein was generated by ligating amino acids 22-564 of LGR5 to an N-terminal FLAG tag and to the transmembrane domain of CD4 using standard recombinant DNA techniques (FLAG-LGR5-CD4TM). HEK 293 cells were transiently transfected with FLAG-LGR5-CD4TM and GFP. After 48 hours, cells were suspended in ice cold PBS containing 2% FCS and heparin and then incubated on ice in the presence of RSPO1-Fc, FZD8-Fc, or a FLAG antibody as a positive control.

[3] = biological target: FZD7-Fc (UniProt O75084 33-170); assay: FACS, Fc fusion on HEK 293 cells with RSPO1-CD4TM
Procedure: as §1, §2

[4] = biological target: T2, FZD1-Fc (UniProt Q9UP38 87-237); assay: FACS, Fc fusion on HEK 293 cells with RSPO1-CD4TM
T2 construct: also called FZD1-10-Fc; FZD-Fc constructs; not shown: Fc
Procedure: as §1, §2

[5] = biological target: FZD2-Fc (UniProt Q14332 24-159); assay: FACS, Fc fusion on HEK 293 cells with RSPO1-CD4TM
Procedure: as §1, §2

| binding result [1] | Binder | also measured |
| --- | --- | --- |
| no binding | B1 |  |
| no binding | B2 |  |
| no binding | B3 | binding result [2]: no binding |
| no binding | B4 |  |
| no binding | B5 |  |
| no binding | B6 |  |
|  | B7 | binding result [3]: no binding; binding result [4]: no binding; binding result [5]: no binding |
| no binding | B8 |  |
